Results as given in article PMC9482650, “Quantitative fragmentomics allow affinity mapping of interactomes” (Nature Communications, 2022).
Numbering of substitutions follows the chain as printed.

T1: APBA2_2, Q99767
T1 sequence (Q99767 654-744, limits assumed, looked up): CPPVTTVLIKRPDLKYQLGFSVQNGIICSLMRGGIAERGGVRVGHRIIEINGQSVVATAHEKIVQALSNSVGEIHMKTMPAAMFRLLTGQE

T2: SIPA1L2, Q9P2F8
T2 sequence (Q9P2F8 945-1036, limits assumed, looked up): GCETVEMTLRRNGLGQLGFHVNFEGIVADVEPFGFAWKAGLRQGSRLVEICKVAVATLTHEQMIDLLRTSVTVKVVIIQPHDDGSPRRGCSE

T3: PTPN13_1, Q12923
T3 sequence (Q12923 1088-1188, limits assumed, looked up): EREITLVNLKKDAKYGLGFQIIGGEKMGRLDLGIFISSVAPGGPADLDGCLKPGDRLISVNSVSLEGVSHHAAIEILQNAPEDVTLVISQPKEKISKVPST

T4: APBA1_2, Q02410
T4 sequence (Q02410 742-832, limits assumed, looked up): T1 sequence (Q99767 654-744, limits assumed, looked up) with K10R, K15R, A59P, Q65H, A66I, S70A, F84Y, G89A

T5: NHERF3_4, Q5T2W1
T5 sequence (Q5T2W1 373-468, limits assumed, looked up): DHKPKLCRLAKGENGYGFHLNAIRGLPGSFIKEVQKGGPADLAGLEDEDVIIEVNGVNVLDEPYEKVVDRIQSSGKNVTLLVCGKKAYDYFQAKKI

T6: APBA3_1, O96018
T6 sequence (O96018 389-490, limits assumed, looked up): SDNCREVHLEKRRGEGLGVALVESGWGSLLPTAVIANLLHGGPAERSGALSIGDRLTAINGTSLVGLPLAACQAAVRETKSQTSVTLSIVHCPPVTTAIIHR

T7: SYNJ2BP, P57105
T7 sequence (P57105 8-110, limits assumed, looked up): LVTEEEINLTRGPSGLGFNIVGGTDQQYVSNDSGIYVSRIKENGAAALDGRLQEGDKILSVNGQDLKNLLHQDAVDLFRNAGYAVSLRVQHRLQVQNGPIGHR

T8: HTRA4, P83105
T8 sequence (P83105 378-476, limits assumed, looked up): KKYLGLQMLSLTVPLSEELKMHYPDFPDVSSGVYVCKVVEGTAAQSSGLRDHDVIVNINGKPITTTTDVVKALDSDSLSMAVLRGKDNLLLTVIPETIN

T9: FRMPD1, Q5SYB0
T9 sequence (Q5SYB0 52-145, limits assumed, looked up): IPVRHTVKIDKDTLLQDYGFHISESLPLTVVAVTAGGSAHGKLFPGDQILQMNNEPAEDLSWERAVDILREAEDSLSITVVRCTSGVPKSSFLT

T10: MPDZ_10, O75970
T10 sequence (O75970 1624-1722, limits assumed, looked up): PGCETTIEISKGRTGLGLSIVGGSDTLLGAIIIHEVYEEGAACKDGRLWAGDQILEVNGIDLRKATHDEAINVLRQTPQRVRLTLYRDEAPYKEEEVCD

T11: ARHGAP21, Q5T5U3
T11 sequence (Q5T5U3 45-169, limits assumed, looked up): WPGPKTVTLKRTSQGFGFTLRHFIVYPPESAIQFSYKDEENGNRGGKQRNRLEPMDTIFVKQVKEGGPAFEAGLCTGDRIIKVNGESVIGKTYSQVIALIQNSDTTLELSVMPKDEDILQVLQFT

T12: LIN7B, Q9HAP6
T12 sequence (Q9HAP6 88-185, limits assumed, looked up): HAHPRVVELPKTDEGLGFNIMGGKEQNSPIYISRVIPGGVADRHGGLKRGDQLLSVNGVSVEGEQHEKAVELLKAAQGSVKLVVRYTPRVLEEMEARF

T13: PDZD7_3, Q9H5P4
T13 sequence (Q9H5P4 857-944, limits assumed, looked up): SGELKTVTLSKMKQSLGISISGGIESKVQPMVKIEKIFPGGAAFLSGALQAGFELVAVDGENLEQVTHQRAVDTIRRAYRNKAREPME


Tests used:
Test in all cases: holdup assay
Design in all cases: key: below the threshold = too weak to quantify, mostly under pKd 3.1 to 4
Settings in all cases: plain residues with an end cap or a label only (N-terminal biotin on a linker: ado-ado)
Inadl_2, Q8NI35 = target: Inadl_2, Q8NI35
Chain of Inadl_2, Q8NI35 (Q8NI35 238-335): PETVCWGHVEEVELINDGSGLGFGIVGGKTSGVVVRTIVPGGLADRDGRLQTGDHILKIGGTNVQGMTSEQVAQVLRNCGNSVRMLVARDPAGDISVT

APBA2_2, Q99767 = target: T1, APBA2_2, Q99767
SIPA1L2, Q9P2F8 = target: T2, SIPA1L2, Q9P2F8
MAGI2_4, Q86UL8 = target: MAGI2_4, Q86UL8
Chain of MAGI2_4, Q86UL8 (Q86UL8 772-865): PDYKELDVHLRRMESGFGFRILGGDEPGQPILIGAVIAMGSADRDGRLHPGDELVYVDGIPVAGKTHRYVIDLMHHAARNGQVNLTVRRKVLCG

PTPN13_1, Q12923 = target: T3, PTPN13_1, Q12923
SNX27, Q96L92 = target: SNX27, Q96L92
APBA1_2, Q02410 = target: T4, APBA1_2, Q02410
GRIP2_3, Q9C0E4 = target: GRIP2_3, Q9C0E4
Chain of GRIP2_3, Q9C0E4 (Q9C0E4 238-339): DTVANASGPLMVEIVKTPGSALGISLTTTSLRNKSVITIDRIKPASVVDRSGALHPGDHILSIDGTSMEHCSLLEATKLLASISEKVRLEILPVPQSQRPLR

NHERF3_4, Q5T2W1 = target: T5, NHERF3_4, Q5T2W1
APBA3_1, O96018 = target: T6, APBA3_1, O96018
SYNJ2BP, P57105 = target: T7, SYNJ2BP, P57105
GRIP2_7, Q9C0E4 = target: GRIP2_7, Q9C0E4
Chain of GRIP2_7, Q9C0E4 (Q9C0E4 934-1023): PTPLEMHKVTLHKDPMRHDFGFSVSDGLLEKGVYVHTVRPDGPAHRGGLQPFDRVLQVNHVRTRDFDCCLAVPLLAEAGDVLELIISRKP

GIPC2, Q8TF65 = target: GIPC2, Q8TF65
Chain of GIPC2, Q8TF65 (Q8TF65 112-203): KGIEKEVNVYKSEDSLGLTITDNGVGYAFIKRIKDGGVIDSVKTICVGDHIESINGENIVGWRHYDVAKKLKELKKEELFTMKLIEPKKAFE

DLG1_1, Q12959 = target: DLG1_1, Q12959
GRASP, Q7Z6J2 = target: GRASP, Q7Z6J2
Chain of GRASP, Q7Z6J2 (Q7Z6J2 96-193): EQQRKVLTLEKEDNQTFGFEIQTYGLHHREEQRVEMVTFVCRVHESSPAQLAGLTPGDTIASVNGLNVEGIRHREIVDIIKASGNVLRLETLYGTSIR

HTRA4, P83105 = target: T8, HTRA4, P83105
FRMPD1, Q5SYB0 = target: T9, FRMPD1, Q5SYB0
PDLIM1, O00151 = target: PDLIM1, O00151
Chain of PDLIM1, O00151 (O00151 1-87): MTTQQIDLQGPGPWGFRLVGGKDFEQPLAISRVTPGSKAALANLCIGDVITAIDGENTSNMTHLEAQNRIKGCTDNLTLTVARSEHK

MAST2, Q6P0Q8 = target: MAST2, Q6P0Q8
Chain of MAST2, Q6P0Q8 (Q6P0Q8 1099-1202): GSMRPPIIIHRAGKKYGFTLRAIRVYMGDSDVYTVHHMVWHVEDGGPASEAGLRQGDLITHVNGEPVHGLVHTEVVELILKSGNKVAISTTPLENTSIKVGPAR

MPDZ_10, O75970 = target: T10, MPDZ_10, O75970
MAGI3_2, Q5TCQ9 = target: MAGI3_2, Q5TCQ9
Chain of MAGI3_2, Q5TCQ9 (Q5TCQ9 398-503): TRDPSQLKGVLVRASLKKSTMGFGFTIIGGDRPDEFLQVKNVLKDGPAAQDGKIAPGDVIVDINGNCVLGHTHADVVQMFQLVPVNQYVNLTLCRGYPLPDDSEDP

ARHGAP21, Q5T5U3 = target: T11, ARHGAP21, Q5T5U3
LIN7B, Q9HAP6 = target: T12, LIN7B, Q9HAP6
PDZD7_3, Q9H5P4 = target: T13, PDZD7_3, Q9H5P4
TJP2_1, Q9UDY2 = target: TJP2_1, Q9UDY2
Chain of TJP2_1, Q9UDY2 (Q9UDY2 24-128): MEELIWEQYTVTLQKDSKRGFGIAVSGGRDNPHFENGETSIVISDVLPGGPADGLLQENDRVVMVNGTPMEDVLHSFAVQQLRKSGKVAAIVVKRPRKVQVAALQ

pKd (Inadl_2, Q8NI35) | pKd (APBA2_2, Q99767) | pKd (SIPA1L2, Q9P2F8) | pKd (MAGI2_4, Q86UL8) | pKd (PTPN13_1, Q12923) | pKd (SNX27, Q96L92) | pKd (APBA1_2, Q02410) | pKd (GRIP2_3, Q9C0E4) | pKd (NHERF3_4, Q5T2W1) | pKd (APBA3_1, O96018) | pKd (SYNJ2BP, P57105) | pKd (GRIP2_7, Q9C0E4) | pKd (GIPC2, Q8TF65) | pKd (DLG1_1, Q12959) | pKd (GRASP, Q7Z6J2) | pKd (HTRA4, P83105) | pKd (FRMPD1, Q5SYB0) | pKd (PDLIM1, O00151) | pKd (MAST2, Q6P0Q8) | pKd (MPDZ_10, O75970) | Binder | also measured
below the threshold | below the threshold | below the threshold | below the threshold | below the threshold | 5.72 | 3.59 | below the threshold | below the threshold | below the threshold | 4.84 | below the threshold | 4.08 | 3.72 | 3.96 | below the threshold | below the threshold | below the threshold | 5.66 | below the threshold | SRPHTNETSL [MCC, P23508] | pKd (MAGI3_2, Q5TCQ9): 4.09; pKd (ARHGAP21, Q5T5U3): 4.01; pKd (LIN7B, Q9HAP6): 3.64; pKd (PDZD7_3, Q9H5P4): 4.36; pKd (TJP2_1, Q9UDY2): below the threshold
below the threshold | below the threshold | below the threshold | 3.62 | below the threshold | 3.75 | 3.92 | below the threshold | 4.13 | below the threshold | below the threshold | 3.51 | below the threshold | below the threshold | 3.51 | 4.23 | below the threshold | below the threshold | below the threshold | below the threshold | PSVYSRSQYV [CLDN8, P56748] | pKd (MAGI3_2, Q5TCQ9): 3.52; pKd (ARHGAP21, Q5T5U3): 4.12; pKd (LIN7B, Q9HAP6): below the threshold; pKd (PDZD7_3, Q9H5P4): below the threshold; pKd (TJP2_1, Q9UDY2): 4.87
4.99 | below the threshold | below the threshold | below the threshold | below the threshold | below the threshold | 3.73 | below the threshold | below the threshold | below the threshold | below the threshold | 5.33 | below the threshold | 3.49 | below the threshold | below the threshold | below the threshold | below the threshold | 3.68 | below the threshold | GDSSRKEYFI [GYPC, P04921] | pKd (MAGI3_2, Q5TCQ9): 4.41; pKd (ARHGAP21, Q5T5U3): below the threshold; pKd (LIN7B, Q9HAP6): 3.97; pKd (PDZD7_3, Q9H5P4): below the threshold; pKd (TJP2_1, Q9UDY2): below the threshold
below the threshold | below the threshold | below the threshold | below the threshold | below the threshold | below the threshold | below the threshold | below the threshold | below the threshold | below the threshold | below the threshold | below the threshold | below the threshold | below the threshold | below the threshold | below the threshold | below the threshold | below the threshold | below the threshold | below the threshold | QLGSPTADLA [SIPA1, Q96FS4] | pKd (MAGI3_2, Q5TCQ9): below the threshold; pKd (ARHGAP21, Q5T5U3): below the threshold; pKd (LIN7B, Q9HAP6): 3.9; pKd (PDZD7_3, Q9H5P4): below the threshold; pKd (TJP2_1, Q9UDY2): below the threshold
